One may read the stoichiometry N as the number of molecules, sites or subunits per partner or assembly.

Details in all cases: remark: other sources report otherwise
The target in test [1] is T1, wildtype pneumolysin (PLYWT) (Streptococcus pneumoniae), P0C2J9.
T1 chain: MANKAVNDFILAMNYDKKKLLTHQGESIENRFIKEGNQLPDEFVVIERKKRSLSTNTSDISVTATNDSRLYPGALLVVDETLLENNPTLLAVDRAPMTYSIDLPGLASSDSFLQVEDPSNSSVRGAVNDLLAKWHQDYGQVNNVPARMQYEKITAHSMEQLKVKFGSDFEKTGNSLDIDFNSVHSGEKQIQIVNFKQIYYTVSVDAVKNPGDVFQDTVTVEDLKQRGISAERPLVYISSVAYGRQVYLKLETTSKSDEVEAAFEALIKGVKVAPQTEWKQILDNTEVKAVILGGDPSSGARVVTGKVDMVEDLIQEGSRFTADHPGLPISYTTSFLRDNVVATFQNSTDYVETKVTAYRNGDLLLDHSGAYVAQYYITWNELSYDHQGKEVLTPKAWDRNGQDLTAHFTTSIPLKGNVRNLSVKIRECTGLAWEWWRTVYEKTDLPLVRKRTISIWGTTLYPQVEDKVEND
As to the kind of experiment: cryo-EM structure; single-particle cryoEM of PLY pore complexes formed on DOPC/cholesterol liposomes (37°C, 30 min), solubilised with 0.56% Cymal-6 and exchanged into amphipol A8-35; 50 mM Tris-HCl pH 7.0, 150 mM NaCl, 5 mM β-mercaptoethanol; 42-fold symmetry, 4.5 Å.

Test [2] concerns the target T1, wildtype pneumolysin (PLYWT) …. As to the kind of experiment: electron cryo-tomography with subtomogram averaging; pores: preformed cholesterol-containing liposomes incubated with PLY (1 mg/ml) at 37°C for 30-180 min; subtomogram average at 27 Å.
Test [3] shares this target. As to the kind of experiment: electron cryo-tomography with subtomogram averaging; prepores: preformed cholesterol-containing liposomes incubated with PLY (1 mg/ml) at room temperature for 30 min; subtomogram average at 22 Å.

B1: wildtype pneumolysin (PLYWT), P0C2J9 1-471 (natural protein)
chain: MANKAVNDFILAMNYDKKKLLTHQGESIENRFIKEGNQLPDEFVVIERKKRSLSTNTSDISVTATNDSRLYPGALLVVDETLLENNPTLLAVDRAPMTYSIDLPGLASSDSFLQVEDPSNSSVRGAVNDLLAKWHQDYGQVNNVPARMQYEKITAHSMEQLKVKFGSDFEKTGNSLDIDFNSVHSGEKQIQIVNFKQIYYTVSVDAVKNPGDVFQDTVTVEDLKQRGISAERPLVYISSVAYGRQVYLKLETTSKSDEVEAAFEALIKGVKVAPQTEWKQILDNTEVKAVILGGDPSSGARVVTGKVDMVEDLIQEGSRFTADHPGLPISYTTSFLRDNVVATFQNSTDYVETKVTAYRNGDLLLDHSGAYVAQYYITWNELSYDHQGKEVLTPKAWDRNGQDLTAHFTTSIPLKGNVRNLSVKIRECTGLAWEWWRTVYEKTDLPLVRKRTISIWGTTLYPQVEDKVEND
On to B1, for which the results for the stoichiometry N in test [1], in test [2] and in test [3] were 42 subunits, 34 subunits and 34 subunits, respectively.

For the origin of these results see article PMC5437283.
